A short description of the data set: label from the status in PepcDB records.

The results in this text go back to a protein production outcome set (Wang et al. 2014).
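Note: failed if final PepcDB status was selected cloned or expressed and not failed if soluble or beyond.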

“AIAAQKISEAHEHIAKAEKYLKTSFMKWKPDYDSAASEYAKAAVAFKNAKQLEQAKDAYLQEAEAHANNRSLFHAAKAFEQAGMMLKDLQRMPEAVQYIEKASVMYVENGTPDTAAMALDRAGKLMEPLDLSKAVHLYQQAAAVFENEERLRQAAELIGKASRLLVRQQKFDEAAASLQKEKSMYKEMENYPTCYKKCIAQVLVQLHRADYVAAQKCVRESYSIPGFSGSEDCAALEDLLQAYDEQDEEQLLRVCRSPLVTYMDNDYAKLAISLKVPGGGGGKKKPSASASAQPQEEEDDEYAGGLC”: the protein production entry was “failed”. As for “AIAASGKRKGLSFDDKKTRLLELFNETCDFYTLKELEKIAPKLKGIITQSVKDVLQSLVDDDLVNSDKCGVQTIYWCLPSEAVAKRQRRLDALQQQLAEKRQKLTALQRQLVQVQAGREDSVERTAVLERLAACEAAWRERQRTLESYLECDPDVLAQRETETKTLIEQANRWTDNLYVIRSYVQRNLGVDLDLFDQQFELKPALQYLE”, the entry is “failed”; as for “AIADELNSPLGERAQGASLAHVVWSDPQWLERYPLTFENVLTYFSRSPFYDPTCNNELVRMQMHPELQGEMLYYTQREEELLLGMQGVEYVPLCSSDAHELFIIRKQVRRSADEVHVTNLYYILYGQVYEAPAFSTVLLVRLRQSADFLVRSLGLLRQWLSKKEYGEPGATGHGHEDTLLLQLLRKAQQRNRQL”, “failed”; as for “AIAEAKTLGIATPRKPVLSVSARKLKDNAADWHNLILKWDSLSDKGFTTASSIANLKVSLLSKEKVELESSSPASMEEEEKTNLDYDKGLEALCEELQAILDGLTKIQMKMEKLSSTTKGICELENYHYREESSRPPLFHTWPTAFFYEVSRRLSEAYKKELLLKHTIGAELAHTADRNLSLTYLSMWLHQPYIESNSKLQLESMLLETGHRAL”, “failed”.

For “AIANSLVRRSAQQLSLWRTYCIKHNASEAASPGRNAGRPNYEEFIGRHQRQAQCSIVVQVSSEKSYEELYNYCSSFGSIMGAHHYCVRQDETLHYILLEYATSDEAAAAIGAGVTNGELSGVPVRSPFLWFRAAGGGRRSPKLVANTAPALLSLDGTRQVDQRHLLGLLRGAADIEEQVQQLYEHTRLNELGIRMRFLAALQVQQAIAGMFPAAQAQPFGSSVNGFGRMGCDLDLILRFDSDMGAKIPLEAAVPSRLVYHTKENLSNGRSQTQRHMECFGDMLHLFLPGVCHVRRILQARVPIIKYHHEHLDLEVDLSMSNLTGFYMSELLYMFGEMDPRVRPLTFTIRRWAQTCGLTNPSPGRWISNFSLTCLVMFFLQQLRQPILPTIGALAKAAEPGDSRVTEDGINCTFTRNVDRLGFRSRNQSSLSELLLQFFEFYSQFDFHNRAISLNEGKPLSKPDHSAMYIVNPLEQLLNVSKNVSLEECERLRIEVRNAAWVLESEVENASVPEGDGQELSCGLLNLFKHPEKAVIRPNMFFKPRMVEVSDLFEQKEAGATSSSTPPTPAITYKSASVRQQVQSIKAATRSELKQLRGSGSSVPTSSPNNRRRS”, the protein production entry is “failed”. For “AIARTDSSKMTDVESGVANFASSARAGRRNALPDIQSSAATDGTSDLPLKLEALSVKEDAKEKDEKTTQDQLEKPQNEEK”, the protein production result is given as “failed”. The result for “AIASSAIERKSLDPSEEPVDEVLQIPPSLLTCGGCQQNIGDRYFLKAIDQYWHEDCLSCDLCGCRLGEVGRRLYYKLGRKLCRRDYLRLFGQDGLCASCDKRIRAYEMTMRVKDKVYHLECFKCAACQKHFCVGDRYLLINSDIVCEQDIYEWTKINGMI” reads “failed”.

As for “AIASSAPAPGPAPASLTLWDEEDFQGRRCRLLSDCANVCERGGLPRVRSVKVENGVWVAFEYPDFQGQQFILEKGDYPRWSAWSGSSSHNSNQLLSFRPVLCANHNDSRVTLFEGDNFQGCKFDLVDDYPSLPSMGWASKDVGSLKVSSGAWVAYQYPGYRGYQYVLERDRHSGEFCTYGELGTQAHTGQLQSIRRVQH”, the protein production entry is on record as “failed”. As for “AIDHRIQYLAYREIKAAVETNKAKAGSVVVLDAHTGELLALANYPSFNPNNRSGVTPEMMRNRGVIDLFEPGSTMKPLSISLALEHGKANLNTVLDTHSYMIGPATIRDVSPQASLGILGIIQKSSNVGTSKLALLNSPEEFWKHYDALGFGRAPETGFPGEASGRLRDWHKWRPIEQATMSFGYGVSVSLIQMARAYTIFANDGVMLPVALYKTANPMPGKRVLSEKTAHEMRDLLIANSQPGGGAVGGRIIGYSIGGKSGTARKLEGRAYVANKHRALFMGFAPGHSPKVIVAVMIDEPSAGKYYGGAVSAPVFSQVAGGALRVLNIAPD”, the entry is “failed”; as for “AIGMALVGTEGQWLQVNKSLSHFLGYSQDELRTMTFQQLTWPEDLNNDLEQLNMLVRGDINSYSMEKRYYTRNGDVVWALLAVSLVRHKDNKPLYFIAQIEDINDLKQSEQENQRLMERITQANDALFQEKERLHITLDSIG”, “failed”. For the sequence “AIPQHEHPMIIAGFGRFGQIIARNARLNHIGFTAIDNNLQQIDFVRRYGGTLYYGDITQPDILRAAGIEKAKVFILAIDDVEDSMNVARHIRLNYPQITLMVRARDRYQVHLLRDLGVEHIWRETYLSSLGMAYRALCELGIP”, the protein production result is “failed”. Take “AISPNRASHTLADIRNQLSTRILILDGAMGTMIQGYKLEEADYRGERFKDWHTDVKGNNDLLVLTQPHIIKQIHTDYLLAGADIIETNTFNATTIAMADYDMQSLSAEINREGARLAREACDAIEQATGKPRYVAGVLGPTNRTCSISPDVNDPGFRNIHFDELVTAYCESTRALIEGGADIIMVETIFDTLNAKAALFAIETVFDELFGANSPARLPVMISGTITDASGRTLTGQTTEAFYNSLRHIKPLSIGLNCALGPKELRPYVEELSRIAECYVSAHPNAGLPNEFGGYDETPEDMAKVIQEWAREGMLNIIGGCCGSTPEHIKVIREAVEQFAPRVLPEIPVACRLAGLEPLTIDAQTLFVNVGERTNVTGSAKF”: the protein production result is “failed”. Turning to “AIVHEMLKDTHPQYAYRSGMSAQEFTQWQDGVRAAMVEIMKFPEIKRQPSPVCVKTEKKEGYILEKWEFYPFPKSVSTFLVLKPEHLKGAVPGVLCIPGSGRTKEGLVGEPGICDKLTEDYNNPKVSMALNMVKEGYVAVAVDNAAAGEASDLECYDKGWNYDYDVVSRFLLELGWSWLGYTSYLDMQVLNWMKAQSYIRKDRIVISGFSLGTEPMMVLGVLDKDIYAFVYNDFLCQTQERAVVMTKPDKENRRPFPNSIRHLIPGYWRYFNFPDVVASLAPRPIIFTEGGLDRDFRLVQSAYAASGKPENAEFHHYPKFADKAVRKDVEHLDEGLDSKTYFEAVNVDPPSHYFKNELVIPWLRKVLK”, the protein production result is recorded as “not failed”.

Turning to “AIVNASNNAILTTSITGEILSANPAAVQMFQSLEQELKGISVSRLFAEKDEMHFFFDFQSNVYSLQRKALGISVECLSLRSDGTEFPAQAELQWADRAKQPLIVITFINLS”, the protein production result is given as “failed”. As for “AIYVDLPNRQLKVKVADRRVISTTDAERQAVTPPGLQEAINDLVKKYTLARAFVRPSGTEDIVRVYAEANSQESADRLAYEVSLLVFQLAGGIGERPQP”, the protein production result is “not failed”. For “AKGKNLIIVQLESFQRNLTNIKIDGQSITPTLDSLQNETMYSNKFFQTVSKSNTADAEWSVYTSTFPSGYYTNTQTYGDRVIPSMPRLLGKNDYTTSTFHTNDASFYNRDEFYPAVGFDKFYDRKFFGDEDVIGFSPSDEVLYNKAFPILEKQYKNNQKFYAQLISVSSHMPFNIPEEKQEINLPSDLKDTELGNYFEAVHYADKQLGAFIQKLKDSGIWEDSVVVFYGDHHIIKTDQLPEEQKKYVNRSTELKADPADDYRIPFFLHYPGMKNPGEIKNVGGEIDIMPTVMNLLGINTGNQIMFGTDILNSTNNYVPERYTMPEGSYFTDSYMYQP”, the protein production result was “failed”. With “AKGKNVIVLHLESFQQFLIDYKLNIDGKQYEVTPFLNSLYHSKETFAFSNFFHQVKAGKTSDAETLMETSLFGLNQGSFFVQYGGDNTQQAAPHILKDTNNYSSAVFHGNIGTFWNRNNAYKQLGYQHFFDQSYMSKMTKDNSFQYGLNDKVMFADSIKYLEHMQQPFYTKFITVSNHYPYQSLDGDDTGFPLAKTEDKTINGYFATANYLDAAIKDFFDYLKASGLYKNSIIVMYGDHYGIANSRNTDLAPLLGKDSQTWTEYNNAMLQRVPYMIHVPGTDKGFISNTYGGEVDALPTLLHLLGIDNKNYIELGQDLLSPNNKQLVAFRSEGNYITPNYTSYSGRVYDTKTGV”, the protein production result is given as “failed”. As for “AKGLRTVKTCVGSDWCRFGTQDSTGLGIRIERFMWGSWTPAKLKMAVSGCPRNCAEATCKDIGVICVDSGFEIHFAGAAGLDIKGTEVLGLVRTEDEALEYIVALTQMYREQARYLERIYKWAKRIGLEEIRRQIMGDAEK”, the entry is “failed”; as for “AKLMNRFSTTKLNPLIGSAGVSAVPMAARVSNKVGLEANAQNFLLMHAMGPNVAGVIGSAVAAGVMIKYVMG”, “failed”; as for “ALQAGRLGSTVFVANLDYKVGWKKLKEVFSMAGVVVRADILEDKDGKSRGIGTVTFEQSIEAVQAISMFNGQLLFDRPMHVKMDERALPKGDFFPPERPQQ”, “not failed”.

As for “ALTGHTVLVGWDGEASERIVELLGQDTSTSRAGLVICDSIITENPLPGRASFIKGDSLDSPAVLSRAGVVGAQRILVHTQSDSLTLAIVLTLKSLGPTGHVVAHFNNSERAALARTYAPELECTSNMAIEMLVRSAQDPGSSSVIT”, the protein production entry is given as “failed”. As for “ANSQLRKQRDENAELAERLASLLKMLPAGVVELSPDGRVIAENLAAESLISGCYIGEYWEAVLERLLTQEADGSFALEAGGESRRLTLQYQDLPASGGRIVLIHDV”, the protein production entry is “failed”. The result for “ANVKLLLPYILKWEGGFVHDPADAGGATNKGVTIATWKRVGYDKDGDGDIDVEDLKLLTDDDVLNRVLKPFYWDRWKADLIESQKVANILVDWVWGSGKYGIVIPQRILGVQADGIVGNKTLQAVNSADPDELFESIFDARREFLEDITARSIKKYEDSIGRKATERELLRHTNKRFLRGWLNRLEDI” reads “not failed”; that for “AQGVGVEAILLLRRECQASHEDALHLGLAEHAPVIELQTLRKLDGQAVSLIFHRYSAVYHELLADYQGGSVRQYLAECGLPLSRAQSLIGARLPSREEAGLLLMPRHMPALTVLTVSCDGAGQPVELSRSVSRSDRFQYQVATAIPTR”, “not failed”. As for “AQSILEKADEIRFPQDSFQVNVAIRTAAPDHAEDLYRYQVLSKGNENSIVMITEPASERGQAILMKGRDLWVFMPSVSQPIRLSLSQRLTGQVANGDIARANFTGDYHPQLLRNESIDDEDYYVLELTGIDRSVTYQKVLLWVNQSNFRPYKAEFYSVSGRLLKTSRYENFDNILGEMRPTRIIMEDALKSGEVSVLDYSDMKLRDLPDKIFTKDYLKR”, the entry is “not failed”; as for “AQTDPSQLKKEGSDAFNAKNYPVAYAKFSEYLKQTNNQDSAIAYYCGMAADEVKKYAEAVTFFDIAIQKKFNIGNAYARKALALDAMKKTDEYVATLEEGLKVDPDNKTMIKNYGLHYLKAGIAAQKAGKVEEAEECFKKVIPLDHKTYKTNALYSLGVLCYNDGANILKKAAPLANSDADKYAAEKEKADGRFKEAIGYLEEATKVSPEDTKSKTMLSQVQAAMK”, “not failed”; as for “ARHPQRVVAAILVAPASPESFSENGHILPEHDDTPTIRNLLPKQTLGICGLVIASENDPWMPFNQAASLAKSFGLPTINLGLSGHINVDSGHGQWPLIDVLVGNFL”, “failed”. The result for “ARIARVVVHPDYRSDGLGQLSVKAALEWIAERRIPEMRKKKHFVETIAQMARYNPFFEKVGFRYVWETASG” reads “failed”; that for “ARLEPLLIGGLYPKNLEDRILIKLDQAPPYLLDGLVAVEDRDFYHHFGVSPKSIARAIWVNTSQGQMRQGGSTLTQQLVKNFYLTNERSLSRKLTEAMMAVLLEIHYSKQEILEAYLNEVFVGQDGQRAVHGFGLASQYFFSQPLSELKIHQVAMLVGLVKGPSFYNPRRNP”, “failed”.
